This is an account of results in US20220372154A1 (APEXIGEN, published 2022).

For assay [1], the target named is T1, human TNFR2-His tagged protein (soluble) (human, UniProt P20333 23-257).
T1 construct: also called hTNFR2 (soluble); soluble TNFR2-His; not shown: His tag
T1 sequence (looked up): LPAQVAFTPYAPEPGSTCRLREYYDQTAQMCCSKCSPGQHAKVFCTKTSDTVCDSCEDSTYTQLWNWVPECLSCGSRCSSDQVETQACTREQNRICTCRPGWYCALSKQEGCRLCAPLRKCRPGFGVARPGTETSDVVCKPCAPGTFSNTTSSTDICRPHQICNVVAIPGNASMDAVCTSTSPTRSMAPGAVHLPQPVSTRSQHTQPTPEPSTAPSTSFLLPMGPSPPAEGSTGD
In words: ELISA, soluble human TNFR2. Background: ELISA stands for enzyme-linked immunosorbent assay.

For the next assay, the target named is T2, osteoprotegerin (OPG) (UniProt O00300 22-401, limits assumed).
T2 sequence (looked up): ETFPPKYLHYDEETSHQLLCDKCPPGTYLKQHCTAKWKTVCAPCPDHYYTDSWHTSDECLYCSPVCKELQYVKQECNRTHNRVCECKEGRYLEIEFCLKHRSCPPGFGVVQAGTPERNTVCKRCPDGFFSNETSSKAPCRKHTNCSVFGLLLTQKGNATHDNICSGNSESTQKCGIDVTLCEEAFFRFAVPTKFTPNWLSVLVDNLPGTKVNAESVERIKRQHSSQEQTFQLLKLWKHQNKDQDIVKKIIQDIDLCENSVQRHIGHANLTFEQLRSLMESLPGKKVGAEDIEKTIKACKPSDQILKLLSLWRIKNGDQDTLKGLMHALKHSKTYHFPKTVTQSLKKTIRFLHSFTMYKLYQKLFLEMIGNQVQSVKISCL
In words: ELISA on coated OPG, OD 650 nm. As to the method: (§1) To test binding to TNFR family members, target proteins were coated on ELISA plates at 1 μg/mL at 4° C. overnight. Plates were washed, blocked, and antibodies were added at indicated concentrations for 1 hour at RT. Positive control antibodies for each protein were used at ˜1 ug/mL. Antibodies were washed and detected with anti-human IgG HRP for 1 hour. Assay was developed using TMB substrate for 10 minutes. For cell-binding, human CD4+ T cells purified from buffy coats were cultured in flat-bottom plates with anti-CD3/CD28 for 24 hours. Cells were harvested and stained for viability, CD4, CD25 and FOXP3. Test antibody staining was detected using anti-human IgG APC. Binding titration of test antibodies was evaluated on CD4+CD25hiFOXP3+ regulatory T cells and plotted as percent binding.

Assay [2] concerns the target T3, human TNFR2 expressed on cells (human, UniProt P20333 23-461).
T3 construct: whole, on cells; also called hTNFR2 (cell); CHO-TNFR2
T3 sequence (looked up): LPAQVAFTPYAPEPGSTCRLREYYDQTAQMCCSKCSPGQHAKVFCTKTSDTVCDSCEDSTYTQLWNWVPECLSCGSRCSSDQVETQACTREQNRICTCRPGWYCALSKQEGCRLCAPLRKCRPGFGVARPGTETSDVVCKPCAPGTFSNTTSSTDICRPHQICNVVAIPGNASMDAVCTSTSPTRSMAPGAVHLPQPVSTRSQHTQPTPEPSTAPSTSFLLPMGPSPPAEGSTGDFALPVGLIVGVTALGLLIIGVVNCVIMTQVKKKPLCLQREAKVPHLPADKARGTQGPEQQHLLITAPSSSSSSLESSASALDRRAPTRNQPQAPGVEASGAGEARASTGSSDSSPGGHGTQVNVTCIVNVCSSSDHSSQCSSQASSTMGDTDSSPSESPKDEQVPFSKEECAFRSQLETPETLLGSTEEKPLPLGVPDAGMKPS
The experiment in a line: Primary Cell Affinity; binding titration on activated human Tregs, flow cytometry. As to the method:
as §1
A general note: A flow cytometer gives signals particle by particle.

In assay [3] the target is T4, human TNFR1-His tagged protein (human, UniProt P19438 30-211, limits assumed).
T4 construct: also called soluble human TNFR1; not shown: His tag
T4 sequence (looked up): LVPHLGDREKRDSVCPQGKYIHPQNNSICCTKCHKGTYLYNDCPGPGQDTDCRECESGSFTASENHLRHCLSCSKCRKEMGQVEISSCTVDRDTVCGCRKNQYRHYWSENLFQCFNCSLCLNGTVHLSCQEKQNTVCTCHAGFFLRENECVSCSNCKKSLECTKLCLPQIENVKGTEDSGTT
The experiment in a line: ELISA on coated TNFR1, OD 450 nm. As to the method: as §1

For assay [4], the target named is T3, human TNFR2 expressed on cells. In words: flow cytometry on cells expressing human TNFR2, MFI median.

B1: humanized antibody h600-25-71 (antibody, V domains shown)
VH: EVQLVESGGGLVQPGGSLRLSCAASGIDLSSYAMGWVRQAPGKGLEWVGDISTSGNAYYATWVKGRFTISRDNSKNTLYLQMNSLRAEDTAVYYCARADYGGETYAFDPWGQGTLVTVSS
VL: DIQMTQSPSSLSASVGDRVTITCQASQSISSYLNWYQQKPGKAPKLLIYSASTLASGVPSRFSGSGSGTDFTLTISSLQPEDFATYYCQQGYSDSNIDNVFGGGTKVEIK
notes: also called Ab 25-71; clone 25-71
Broadly, the EC50 is the concentration at which the effect is half-maximal. For orientation: Kd means a measure of binding affinity in units of concentration. Low values mean tighter binding, high ones weaker binding. The term EC50 (read off the curve) denotes the concentration needed to bring the measured effect to its halfway point. High values mean lower potency in that assay, low ones higher potency in that assay. In turn, B1 had a concentration giving a half-maximal response (EC50) in assay [1] of 0.159 nM. Also, the binding result (with osteoprotegerin (OPG); in assay [3]) was “no binding (tested: about 67 nM)” in each case. The molecule also registered a dissociation constant (Kd) in assay [2] of 0.047 nM. Moreover, in assay [4], the half-maximal effective concentration (EC50 (read off the curve)) was approximately 0.3 nM.
